Assay results from US20040063656A1.

Biological target: wild type human VEGFR-3 (Flt4), long form (human) (UniProt P35916)
Assay: cell-based or functional assay

Chain of UniProt P35916 (P35916 25-1363 limits assumed): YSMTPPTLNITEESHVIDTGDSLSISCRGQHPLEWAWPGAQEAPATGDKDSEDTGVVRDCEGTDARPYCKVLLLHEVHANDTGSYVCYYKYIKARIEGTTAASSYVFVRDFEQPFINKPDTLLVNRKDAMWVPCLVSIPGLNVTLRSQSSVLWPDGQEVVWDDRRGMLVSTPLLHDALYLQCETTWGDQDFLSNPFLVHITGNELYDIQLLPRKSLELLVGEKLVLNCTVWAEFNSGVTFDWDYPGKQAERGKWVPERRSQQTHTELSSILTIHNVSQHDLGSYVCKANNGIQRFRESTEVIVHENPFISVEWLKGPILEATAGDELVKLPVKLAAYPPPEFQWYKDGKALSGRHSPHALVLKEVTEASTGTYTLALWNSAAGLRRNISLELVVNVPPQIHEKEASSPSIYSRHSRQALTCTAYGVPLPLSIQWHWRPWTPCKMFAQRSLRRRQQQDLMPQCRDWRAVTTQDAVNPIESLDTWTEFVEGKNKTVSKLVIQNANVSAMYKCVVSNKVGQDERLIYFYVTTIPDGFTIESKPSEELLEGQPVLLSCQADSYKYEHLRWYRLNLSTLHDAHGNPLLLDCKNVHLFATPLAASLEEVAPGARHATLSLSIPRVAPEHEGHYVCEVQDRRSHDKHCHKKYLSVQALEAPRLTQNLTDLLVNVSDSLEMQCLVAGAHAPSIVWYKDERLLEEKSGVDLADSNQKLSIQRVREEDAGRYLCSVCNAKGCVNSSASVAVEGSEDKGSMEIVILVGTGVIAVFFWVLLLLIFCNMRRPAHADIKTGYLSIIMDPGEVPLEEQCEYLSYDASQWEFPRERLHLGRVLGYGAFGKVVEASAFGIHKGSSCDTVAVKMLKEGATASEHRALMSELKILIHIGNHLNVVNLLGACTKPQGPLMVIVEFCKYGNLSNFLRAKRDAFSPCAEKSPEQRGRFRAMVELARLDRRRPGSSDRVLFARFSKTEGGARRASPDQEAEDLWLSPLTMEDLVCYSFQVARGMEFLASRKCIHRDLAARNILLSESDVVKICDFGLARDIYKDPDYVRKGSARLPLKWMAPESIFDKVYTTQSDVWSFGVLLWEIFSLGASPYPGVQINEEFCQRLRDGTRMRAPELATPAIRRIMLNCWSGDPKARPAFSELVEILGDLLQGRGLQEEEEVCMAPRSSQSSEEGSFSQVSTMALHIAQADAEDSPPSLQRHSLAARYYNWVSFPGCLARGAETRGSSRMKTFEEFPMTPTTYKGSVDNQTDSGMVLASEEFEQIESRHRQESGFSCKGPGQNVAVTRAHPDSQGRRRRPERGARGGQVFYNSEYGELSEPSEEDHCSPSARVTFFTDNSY

tyrosine phosphorylation of VEGFR-3 (immunoprecipitation and anti-phosphotyrosine Western blot), 293T cells co-transfected with 75% of WT and 25% of mutant plasmid: 90 % decrease
tyrosine phosphorylation of VEGFR-3 (immunoprecipitation and anti-phosphotyrosine Western blot), wild type and mutant vectors co-transfected at a 1:1 ratio (% of the wild type alone): 4
Substance: P1114L mutant of human VEGFR-3 (long form) (from UniProt P35916 25-1363) (receptor)
